In patent US20260109770A1 (REMD BIOTHERAPEUTICS, published 2026):

Biological target: human C-C chemokine receptor type 8 (hCCR8) (human, UniProt P51685 1-355)
Assay: cell-based or functional assay

Sequence of human C-C chemokine receptor type 8 (hCCR8) (P51685 whole entry): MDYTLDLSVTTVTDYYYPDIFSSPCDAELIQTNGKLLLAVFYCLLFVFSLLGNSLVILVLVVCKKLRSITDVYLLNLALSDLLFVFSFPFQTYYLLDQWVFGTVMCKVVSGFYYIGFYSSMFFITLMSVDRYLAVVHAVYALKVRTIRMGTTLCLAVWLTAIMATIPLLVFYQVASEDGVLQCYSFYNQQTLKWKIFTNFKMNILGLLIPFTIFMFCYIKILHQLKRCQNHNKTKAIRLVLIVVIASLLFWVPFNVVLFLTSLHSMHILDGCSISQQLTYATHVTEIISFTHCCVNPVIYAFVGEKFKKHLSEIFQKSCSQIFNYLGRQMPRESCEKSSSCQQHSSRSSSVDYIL

Row | Binder | inhibition of β-arrestin production (CCR8 CHO-K1 β-arrestin bioassay, 2 nM hCCL1, subclone supernatant)
1 | mouse antibody 516D7D12 (MAb 10) (antibody, V domains shown) VH: EVQLVESGGGLVQPKGSLKLSCAASGFSFNTYAMNWVRQAPGKGLEWVARIRTKSNNYATYYADSVKDRFTISRDDSESMLYLQMNNLKTEDTAMYYCVRGGSGLRYVRYFDVWGTGTTVTVSS VL: DIVMTQATPSVPVTPGESVSISCRSSKSLLHSNGNTYLYWFLQRPGQSPQLLIYRMSNLASGVPERFSGSGSGSAFTLRVSRVEAEDVGVYYCMQHLEYPFTFGSGTKLEIK | ≥ 50%
2 | mouse antibody 525F2F3F11 (MAb 11) (antibody, V domains shown) VH: EVQLVESGGGLVQPKGSLKLSCAASGFSFNTYAMNWVRQAPGKGLEWVARIRTKSNNYATYYADSVKDRFTISRDDSENMLYLQMNNLKTEDTAMYYCVRGGSGLRYVRYFDVWGTGTTVTVSS VL: DIVMTQATPSVPVTPGESVSISCRSSKSLLHSNGNTYLYWFLQRPGQSPQLLIYRMSNLASGVPERFSGSGSGSAFTLRVSRVEAEDVGVYYCMQHLEYPFTFGSGTKLEIK | ≥ 50%
3 | mouse antibody 530H3G7D9 (MAb 12) (antibody, V domains shown) VH: EVQLVESGGGLVQPKGSLKLSCAASGFSFNTYAMNWVRQAPGKGLDWVARIRSKSNNYATYYADSVKDRFTISRDDSESMLYLQMNNLKTEDTAMYFCVRQTYGSRDYAMDYWGQGTSVTVSS VL: DVVMTQTPLSLPVSLGDQASISCRSSQSLVHSNGNTYLHWYLQKPGQSPKLLIYKVSNRFSGVPDRFSGSGSGTDFTLKISRVEAEDLGVYFCCQSTHVPPYTFGGGTKLEIK | ≥ 50%
4 | mouse antibody 531B9B1C9 (MAb 13) (antibody, V domains shown) VH: EVQLVESGGGLVQPKGSLKLSCAASGFSFNAYAMNWVRQAPGKGLDWVARIRSKSNNYATYYADSVKDRFTISRDDSESMLYLQMNNLKTEDTAMYFCVRQTYGSRDYAMDYWGQGTSVTVSS VL: DVVMTQTPLSLPVSLGDQASISCRSSQSLVHSNGNTYLHWYLQKPGQSPKLLIYKVSNRFSGVPDRFSGSGSGTDFTLKISRVEAEDLGVYFCCQSTHVPPYTFGGGTKLEIK | ≥ 50%
5 | mouse antibody 507B6B10 (MAb 14) (antibody, V domains shown) VH: EVQLVESGGGLVQPKGSLKLSCAASGFSFNTYAMNWVRQAPGKGLEWVARIRSKSNNYATYYADSVKDRFTISRDDSESMLYLQMNNLKTEDTAMYYCVRGGSGIRYVRYFDVWGTGTTVTVSS VL: DIVMTQAAPSVPVTPGESVSISCRSSKSLQHSNGNIYLYWFLQRPGQSPQLLIYRMSNLASGVPDRFSGSGSGSAFTLRISRVEAEDVGVYYCMQHLEYPFTFGSGTKLEIK | ≥ 50%
6 | mouse antibody 509H4E10B3 (MAb 15) (antibody, V domains shown) VH: EVQLVESGGGLVQPRGSLKLSCAASGFSFNAYAMNWVRQAPGKGLEWVARIRSKSNNFATYYADSVKDRFTISRDDSESMLYLQMNNLKTEDTAMYYCVRQTYGSRDYAMDYWGQGTSVTVSS VL: DVVMTQTPLSLPVSLGDRASISCRSSQSLVHSNGNTYLHWYLQKPGQSPRLLIYKVSNRFSGVPDRFSGSGSGTDFTLKISRVEAEDLGVYFCSQSTHVPPYTFGGGTKLEIK | ≥ 50%
7 | mouse antibody 526G1C12 (MAb 16) (antibody, V domains shown) VH: EVQLVESGGGLVQPKGSLKLSCAASGFSFKTYAMNWVRQAPGEGLEWVARIRTKSNNYATYYADSVKDRFTISRDDSETMLYLQMNNLKTEDTAMYYCVRGGSGLNYVRYFDVWGPGTTVTVSS VL: DIVMTQAAPSVLVTPGESVSFSCRSSKSLLHSNGNTYLYWFLQRPGQSPQLLIFRMSNLASGVPDRFSGSGSGSAFTLRISRVEAEDVGVYYCMQHLEYPFTFGSGTKLEIK | ≥ 50%
8 | mouse antibody 531A3E12H8 (MAb 17) (antibody, V domains shown) VH: EVQLVESGGGLVQPKGSLKLSCAASGFSFNTYAMNWVRQAPGKGLEWVARIRTKSNNYATFYADSVKDRFTISRHDSESMLYLQMNNLKTEDTAMYYCVRGGSGIRYVRYFDVWGTGTTVTVSS VL: DIVMTQAAPSVTVTPGESVSISCRSSKSLLHSNGNTYLYWFLQRPGQSPQLLIYRMSDLASGVPDRFSGSGSGSAFTLRISRVEAEDVGVYYCMQHLEYPFTFGSGTKLEIK | ≥ 50%
